Test [1] addresses human GARP/latent TGFβ1 complex on cells (human) (UniProt Q14392). Description: flow cytometry on human GARP/latent TGFβ1 transfected CHO-S cells, goat anti-human IgG(H+L) FITC. In general terms: Flow cytometry measures light scatter and fluorescence of single cells or particles in a stream.
Test [2] has as its target human GARP/TGFβ1 complex (protein used in ELISA and Octet) (human) (UniProt Q14392). Description: Octet.
The target in test [3] is human GARP protein not in any GARP/TGFβ1 complex (protein used in ELISA and Octet) (human) (UniProt Q14392). Description: Octet.
human GARP protein not in any GARP/TGFβ1 complex (protein used in ELISA and Octet) (human), sequence (Q14392 20-627 limits assumed, one chain of several): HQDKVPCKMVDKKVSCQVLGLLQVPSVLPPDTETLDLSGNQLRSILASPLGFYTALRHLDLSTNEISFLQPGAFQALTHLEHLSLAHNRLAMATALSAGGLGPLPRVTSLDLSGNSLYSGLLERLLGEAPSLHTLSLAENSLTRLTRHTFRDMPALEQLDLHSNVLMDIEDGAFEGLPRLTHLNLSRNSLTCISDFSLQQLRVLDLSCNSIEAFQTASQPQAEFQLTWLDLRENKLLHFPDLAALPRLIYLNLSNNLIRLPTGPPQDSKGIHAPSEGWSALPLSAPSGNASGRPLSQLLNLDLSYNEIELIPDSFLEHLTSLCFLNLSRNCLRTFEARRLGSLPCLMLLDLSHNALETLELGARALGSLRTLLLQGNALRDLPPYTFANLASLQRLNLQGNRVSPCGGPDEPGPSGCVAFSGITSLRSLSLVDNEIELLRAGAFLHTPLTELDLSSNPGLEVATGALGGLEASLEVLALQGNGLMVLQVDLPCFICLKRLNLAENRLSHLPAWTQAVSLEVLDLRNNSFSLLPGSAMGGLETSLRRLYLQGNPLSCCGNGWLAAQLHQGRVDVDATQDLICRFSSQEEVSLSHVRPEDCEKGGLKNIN

The values below come from patent US20230340098A1.

What is called EC50 (read off the curve) is the midpoint of the concentration-response curve. A word on the Kd: it is a measure of binding affinity in units of concentration. Low readings indicate a tighter complex, high ones a looser complex.

As to “GARP ref. Ab1, an ABBV-151 analog (antibody)”, the EC50 (read off the curve) in test [1] stood at 0.3 mg/L. The Kd in test [2] amounted to 0.428 nM.
As to “GARP ref. Ab2, a DS-1005a analog (antibody)”, the Kd in test [3] turned out to be 2.02 nM; in test [2], 4.12 nM.
